Test results: paper PMC11128890 (Frontiers in Cell and Developmental Biology, 2024)

B1: recombinant soluble integrin αvβ3 [not stated] / VEGF165 heparin-binding domain (HBD), wild type [human] (parent complex)
chain 1: FNLDVDSPAEYSGPEGSYFGFAVDFFVPSASSRMFLLVGAPKANTTQPGIVEGGQVLKCDWSSTRRCQPIEFDATGNRDYAKDDPLEFKSHQWFGASVRSKQDKILACAPLYHWRTEMKQEREPVGTCFLQDGTKTVEYAPCRSQDIDADGQGFCQGGFSIDFTKADRVLLGGPGSFYWQGQLISDQVAEIVSKYDPNVYSIKYNNQLATRTAQAIFDDSYLGYSVAVGDFNGDGIDDFVSGVPRAARTLGMVYIYDGKNMSSLYNFTGEQMAAYFGFSVAATDINGDDYADVFIGAPLFMDRGSDGKLQEVGQVSVSLQRASGDFQTTKLNGFEVFARFGSAIAPLGDLDQDGFNDIAIAAPYGGEDKKGIVYIFNGRSTGLNAVPSQILEGQWAARSMPPSFGYSMKGATDIDKNGYPDLIVGAFGVDRAILYRARPVITVNAGLEVYPSILNQDNKTCSLPGTALKVSCFNVRFCLKADGKGVLPRKLNFQVELLLDKLKQKGAIRRALFLYSRSPSHSKNMTISRGGLMQCEELIAYLRDESEFRDKLTPITIFMEYRLDYRTAADTTGLQPILNQFTPANISRQAHILLDCGEDNVCKPKLEVSVDSDQKKIYIGDDNPLTLIVKAQNQGEGAYEAELIVSIPLQADFIGVVRNNEALARLSCAFKTENQTRQVVCDLGNPMKAGTQLLAGLRFSVHQQSEMDTSVKFDLQIQSSNLFDKVSPVVSHKVDLAVLAAVEIRGVSSPDHVFLPIPNWEHKENPETEEDVGPVVQHIYELRNNGPSSFSKAMLHLQWPYKYNNNTLLYILHYDIDGPMNCTSDMEINPLRIKISSLQTTEKNDTVAGQGERDHLITKRDLALSEGDIHTLGCGVAQCLKIVCQVGRLDRGKSAILYVKSLLWTETFMNKENQNHSYSLKSSASFNVIEFPYKNLPIEDITNSTLVTTNVTWGIQP
chain 2: GPNICTTRGVSSCQQCLAVSPMCAWCSDEALPLGSPRCDLKENLLKDNCAPESIEFPVSEARVLEDRPLSDKGSGDSSQVTQVSPQRIALRLRPDDSKNFSIQVRQVEDYPVDIYYLMDLSYSMKDDLWSIQNLGTKLATQMRKLTSNLRIGFGAFVDKPVSPYMYISPPEALENPCYDMKTTCLPMFGYKHVLTLTDQVTRFNEEVKKQSVSRNRDAPEGGFDAIMQATVCDEKIGWRNDASHLLVFTTDAKTHIALDGRLAGIVQPNDGQCHVGSDNHYSASTTMDYPSLGLMTEKLSQKNINLIFAVTENVVNLYQNYSELIPGTTVGVLSMDSSNVLQLIVDAYGKIRSKVELEVRDLPEELSLSFNATCLNNEVIPGLKSCMGLKIGDTVSFSIEAKVRGCPQEKEKSFTIKPVGFKDSLIVQVTFDCDCACQAQAEPNSHRCNNGNGTFECGVCRCGPGWLGSQCECSEEDYRPSQQDECSPREGQPVCSQRGECLCGQCVCHSSDFGKITGKYCECDDFSCVRYKGEMCSGHGQCSCGDCLCDSDWTGYYCNCTTRTDTCMSSNGLLCSGRGKCECGSCVCIQPGSYGDTCEKCPTCPDACTFKKECVECKKFDRGALHDENTCNRYCRDEIESVKELKDTGKDAVNCTYKNEDDCVVRFQYYEDSSGKSILYVVEEPECPKGPD
chain 3: PCGPCSERRKHLFVQDPQTCKCSCKNTDSRCKARQLELNERTCRCDKPRR

Variants of: B1
Experiment: ELISA-type binding assay; HBD coated at 2.5 µg/ml; n=3; read off a plot

Variant	response [OD450]
chain 3 R8A, chain 3 R9A, chain 3 K10A	~0.25
chain 3 K25A, chain 3 R30A, chain 3 R34A	~0.3
chain 3 R8A, chain 3 R9A, chain 3 K10A, chain 3 K25A, chain 3 R30A, chain 3 R34A	~0.02

Variants of: B1
Experiment: ELISA-type binding assay; HBD coated at 5 µg/ml (highest point of the curve); read off a plot

Variant	response [OD450]
chain 3 R8A, chain 3 R9A, chain 3 K10A	~0.78
chain 3 K25A, chain 3 R30A, chain 3 R34A	~1.1
chain 3 R8A, chain 3 R9A, chain 3 K10A, chain 3 K25A, chain 3 R30A, chain 3 R34A	~0.11
